This test has as its target T1, human APRIL (A Proliferation Inducing Ligand) (human, UniProt O75888 105-250).
T1 construct: No catalogue number is printed; also called hAPRIL; source: bought: R&D Systems
T1 sequence (looked up): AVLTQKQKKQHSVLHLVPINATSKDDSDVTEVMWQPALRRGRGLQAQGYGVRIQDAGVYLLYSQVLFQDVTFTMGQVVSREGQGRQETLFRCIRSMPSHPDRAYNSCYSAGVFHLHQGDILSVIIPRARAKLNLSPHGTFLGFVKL
Description: SPR; blocking assay, Biacore T200; human BCMA-rFc immobilised; 1 µM 1-E6 (affibody-His6) or running buffer injected first, then 100 nM APRIL or 25 nM belantamab; PBS-T. To be noted: both partners purified. A general note: SPR reads the build-up and loss of mass on a sensor chip optically.

The text below walks through data of PMC12154184, “An Anti-BCMA Affibody Affinity Protein for Therapeutic and Diagnostic Use in Multiple Myeloma” (International Journal of Molecular Sciences, 2025).

B1: recombinant human BCMA extracellular domain fused to the Fc portion of rabbit IgG (BCMA-rFc) (Fc fusion, UniProt Q02223 5-50, looked up)
chain: AGQCSQNEYFDSLLHACIPCQLRCSSNTPPLTCQRYCNASVTNSVK
notes: human B Cell Maturation Antigen (BCMA, TNFRSF17, CD269), residues 5-50 containing the ECD as told in the results; the methods give residues 1-54 of UniProt Q02223 for the biotinylated selection antigen (cat. no. 10620-H03H-B); no range is printed for 10620-H15H itself; The discussion speaks of 45 residues; also called human BCMA-rFc; immobilised BCMA; source: bought: Sino Biological (cat. no. …)
As for B1, the binding result is “binds”.
